From article PMC7910587

Target: IQGAP1 (Ras GTPase-activating-like protein IQGAP1) (human (endogenous in INT 407)) (UniProt P46940)
Assay: co-IP; INT 407 cells non-infected or infected for 45 min with C. jejuni wild-type strain (F38011 or 81-176) or the ∆ciaD mutant; lysis in IP buffer with 50 mM NaCl; IP with mouse anti-IQGAP1 and Protein A/G agarose; immunoblots for RacGAP1, Rac1, Erk 1/2

Chain of UniProt P46940 (P46940 whole entry): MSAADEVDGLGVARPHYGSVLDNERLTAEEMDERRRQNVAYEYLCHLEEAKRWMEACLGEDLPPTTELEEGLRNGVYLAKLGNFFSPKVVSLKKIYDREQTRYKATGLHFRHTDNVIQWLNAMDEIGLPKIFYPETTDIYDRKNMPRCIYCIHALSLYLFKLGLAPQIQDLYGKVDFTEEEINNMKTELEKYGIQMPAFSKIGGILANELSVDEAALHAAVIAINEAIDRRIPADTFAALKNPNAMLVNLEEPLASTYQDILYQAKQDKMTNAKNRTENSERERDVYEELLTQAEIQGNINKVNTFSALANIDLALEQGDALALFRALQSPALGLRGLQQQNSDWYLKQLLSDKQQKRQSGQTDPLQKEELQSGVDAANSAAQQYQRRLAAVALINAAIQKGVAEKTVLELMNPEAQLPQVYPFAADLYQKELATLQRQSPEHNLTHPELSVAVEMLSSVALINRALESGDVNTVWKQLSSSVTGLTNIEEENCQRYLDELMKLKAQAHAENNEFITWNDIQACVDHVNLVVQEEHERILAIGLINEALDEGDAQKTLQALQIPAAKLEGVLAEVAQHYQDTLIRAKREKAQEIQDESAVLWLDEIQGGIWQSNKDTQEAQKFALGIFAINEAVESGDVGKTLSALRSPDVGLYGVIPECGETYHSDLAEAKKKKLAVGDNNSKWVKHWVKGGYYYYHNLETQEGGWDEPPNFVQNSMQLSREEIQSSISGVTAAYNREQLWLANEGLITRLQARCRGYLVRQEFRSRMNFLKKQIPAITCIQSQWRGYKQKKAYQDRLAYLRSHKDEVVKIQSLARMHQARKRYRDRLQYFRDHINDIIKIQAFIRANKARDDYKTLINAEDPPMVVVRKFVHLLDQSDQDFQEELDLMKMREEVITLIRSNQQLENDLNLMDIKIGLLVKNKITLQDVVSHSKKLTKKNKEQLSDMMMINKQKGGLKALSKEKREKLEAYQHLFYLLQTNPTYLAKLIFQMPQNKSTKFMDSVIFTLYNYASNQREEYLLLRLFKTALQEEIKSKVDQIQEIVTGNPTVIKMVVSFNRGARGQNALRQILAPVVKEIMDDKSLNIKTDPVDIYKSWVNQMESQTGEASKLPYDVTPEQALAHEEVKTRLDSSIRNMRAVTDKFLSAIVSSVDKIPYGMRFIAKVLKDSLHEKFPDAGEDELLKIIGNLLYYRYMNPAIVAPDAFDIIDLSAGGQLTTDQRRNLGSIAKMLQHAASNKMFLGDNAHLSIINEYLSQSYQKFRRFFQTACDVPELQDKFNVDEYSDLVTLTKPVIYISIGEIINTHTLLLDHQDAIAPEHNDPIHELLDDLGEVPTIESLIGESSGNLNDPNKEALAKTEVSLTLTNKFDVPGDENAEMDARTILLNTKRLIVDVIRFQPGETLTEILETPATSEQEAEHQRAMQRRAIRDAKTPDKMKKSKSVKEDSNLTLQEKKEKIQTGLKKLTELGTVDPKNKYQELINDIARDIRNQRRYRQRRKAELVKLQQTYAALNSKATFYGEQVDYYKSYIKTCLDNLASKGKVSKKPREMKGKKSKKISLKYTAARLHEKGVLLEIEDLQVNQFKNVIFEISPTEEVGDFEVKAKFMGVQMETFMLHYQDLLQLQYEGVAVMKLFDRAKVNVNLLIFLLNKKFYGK

## CiaD effector protein of the C. jejuni F38011 wild-type strain (from UniProt Q0PAA2 1-163) (natural protein)
  reduction of RacGAP1 in the IQGAP1 complex on infection with the wild-type strain: 50%
